The source of these data is patent publication US20070010428A1, “Inhibitors of signal transduction and activator of transcription 3” (priority 2004, published 2007).

The target in one experiment is Stat3 (UniProt P40763). Description: fluorescence polarization competition. In general terms: Fluorescence polarisation rises when a labelled molecule tumbles more slowly, as on binding a larger partner.
Experiment [1] deals with Stat3 in IL-6 stimulated HepG2 hepatoma cells (UniProt P40763). The experiment in a line: cell-based or functional assay.
Sequence of Stat3 in IL-6 stimulated HepG2 hepatoma cells (P40763 2-770 limits assumed): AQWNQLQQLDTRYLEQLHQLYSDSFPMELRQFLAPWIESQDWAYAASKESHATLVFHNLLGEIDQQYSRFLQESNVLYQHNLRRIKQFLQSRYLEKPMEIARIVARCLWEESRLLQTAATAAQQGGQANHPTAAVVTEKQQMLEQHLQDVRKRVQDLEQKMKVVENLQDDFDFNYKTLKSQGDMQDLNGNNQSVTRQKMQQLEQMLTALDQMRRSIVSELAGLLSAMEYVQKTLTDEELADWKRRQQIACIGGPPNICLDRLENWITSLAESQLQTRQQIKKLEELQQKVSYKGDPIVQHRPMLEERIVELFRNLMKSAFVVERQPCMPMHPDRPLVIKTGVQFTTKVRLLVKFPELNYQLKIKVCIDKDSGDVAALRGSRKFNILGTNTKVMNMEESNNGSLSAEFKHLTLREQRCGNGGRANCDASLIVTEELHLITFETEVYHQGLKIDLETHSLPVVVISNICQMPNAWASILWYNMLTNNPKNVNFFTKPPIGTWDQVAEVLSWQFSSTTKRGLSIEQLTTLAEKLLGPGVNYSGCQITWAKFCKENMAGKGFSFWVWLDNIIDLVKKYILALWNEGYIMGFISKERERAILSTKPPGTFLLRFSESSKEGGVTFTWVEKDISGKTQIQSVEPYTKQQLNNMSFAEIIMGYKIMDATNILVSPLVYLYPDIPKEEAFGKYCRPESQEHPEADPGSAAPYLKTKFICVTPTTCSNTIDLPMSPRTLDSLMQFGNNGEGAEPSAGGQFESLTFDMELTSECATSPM

The term IC50 denotes the concentration that inhibits the measured activity by half.

Sequence of Stat3 (P40763 whole entry): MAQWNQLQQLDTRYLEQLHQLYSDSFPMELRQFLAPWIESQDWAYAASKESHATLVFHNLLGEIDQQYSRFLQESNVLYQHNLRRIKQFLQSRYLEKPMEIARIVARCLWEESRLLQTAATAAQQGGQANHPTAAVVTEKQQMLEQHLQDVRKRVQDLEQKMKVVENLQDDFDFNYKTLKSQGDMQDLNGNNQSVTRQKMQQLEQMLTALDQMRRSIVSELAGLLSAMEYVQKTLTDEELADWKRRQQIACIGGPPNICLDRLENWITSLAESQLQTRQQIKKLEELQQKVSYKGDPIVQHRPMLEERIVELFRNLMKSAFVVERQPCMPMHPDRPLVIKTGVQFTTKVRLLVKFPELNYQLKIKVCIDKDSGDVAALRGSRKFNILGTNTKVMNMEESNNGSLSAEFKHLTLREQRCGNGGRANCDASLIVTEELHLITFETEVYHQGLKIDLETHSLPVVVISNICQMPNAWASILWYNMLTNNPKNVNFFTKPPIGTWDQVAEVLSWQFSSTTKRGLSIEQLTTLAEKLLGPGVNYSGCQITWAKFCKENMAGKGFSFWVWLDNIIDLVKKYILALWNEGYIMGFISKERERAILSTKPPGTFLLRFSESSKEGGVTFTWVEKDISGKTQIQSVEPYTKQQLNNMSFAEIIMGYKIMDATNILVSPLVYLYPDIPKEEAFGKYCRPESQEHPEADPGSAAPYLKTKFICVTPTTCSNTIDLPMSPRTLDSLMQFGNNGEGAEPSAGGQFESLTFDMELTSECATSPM

As to pCinn-Leu-Pro-Gln-Thr-NH2 (5, PM-50D), the IC50 with Stat3 was found to be 0.11 µM. The same measure, in the same setting: the figure for pCinn-Cha-Pro-Gln-NHBn (7, PM-66D) is 0.05 µM; for “Ac-pTyr-Leu-methanoPro-Gln-Thr-NH2 (14, DRCIV-39B)” it is 0.2 µM; for “pCinn-Cha-methanoPro-Gln-NHBn (15, PM-84D)” it is 0.11 µM. In the experiment with Stat3, “Ac-pTyr-Haic-Gln-Thr-NH2 (10, DRCIV-35B)” showed an IC50 of 0.2 µM. Regarding “Ac-pTyr-Leu-Pro-Gln-Thr-Val-mts (peptide)”, the IL-6 stimulated luciferase reporter under the Stat3-responsive alpha2-macroglobulin promoter, HEPG2 cells, peptide at 50 and 100 µM (% of that of IL-6) in experiment [1] was in the range of 60 to 70. F2PmCinn-Cha-Pro-Gln-NHBn (8, PM-88D) returned an IC50 with Stat3 of 2 µM. pInd-Cha-Pro-Gln-NHBn (9, PM-67D) gave an IC50 with Stat3 of 0.1 µM. With “F2PmCinn-Leu-Pro-Gln-Thr-Val-Ala-Ala-Val-Leu-Leu-Pro-Val-Leu-Leu-Ala-Ala-Pro-NH2 (peptide; the values are: luciferase activity remaining)”, in experiment [1], the IL-6 stimulated luciferase reporter under the Stat3-responsive alpha2-macroglobulin promoter, HEPG2 cells, peptide at 50 µM was 50% and the IL-6 stimulated luciferase reporter under the Stat3-responsive alpha2-macroglobulin promoter, HEPG2 cells, peptide at 100 µM came out at 25%.
